Positions count from the first letter of the chain named. Names and notes keep the numbering of the source. “Also recorded” adds a separate entry of the source.
How the values were obtained:
[1] = target: AbMV movement protein (MP; BC1) (UniProt P21946); test: acceptor photobleaching FRET, tag layout NC; settings: sites T221,S223,S250
[2] = target: the molecule itself; test: FRET or BRET; acceptor photobleaching FRET in living N. benthamiana leaf epidermal cells, 3 dpai; acceptor mVenus, donor mTurquoise2; four layouts (NN, NC, CN, CC); without and with local AbMV (DNA-A + DNA-BΔMP) infection; ROIs along the plasma membrane; p19 co-infiltrated

Q: How did the “other: mean FRET efficiency” value ([1]; reference: MPWT with MPWT) turn out when “AbMV movement protein (MP; BC1) (from UniProt P21946) MPAAA with MPAAA” was run?
A: stronger; reference 36; also recorded: stronger; reference 28

Q: Which results are given for “AbMV movement protein (MP; BC1) (from UniProt P21946) MPDDD with MPDDD”?
A: other: mean FRET efficiency ([1]; reference: MPAAA with MPAAA): weaker; reference 50; also recorded: weaker; reference 42; other: mean FRET efficiency ([1]; reference: MPWT with MPWT): same; reference 28

B1: AbMV movement protein, full-length, T221A/S223A/S250A (MP^AAA), fused to mVenus or mTurquoise2 (natural protein, Abutilon mosaic virus, UniProt P21946 1-293, looked up)
chain: MDSQLVNPPNAFNYIESHRDEYQLSHDLTEIILQFPSTAAQLTARLSRSCMKIDHCVIEYRQQVPINATGSVIVEIHDKRMTDNESLQASWTFPIRCNIDLHYFSASFFSLKDPIPWKLYYKVCDTNVHQRTHFAKFKGKLKLSTAKHSVDIPFRAPTVRILSKQFSEKDVDFSHVDYGKWERKPIRCASMSRIGLRGPIEIRPGESWASRSTIGTAQPDADAEMENELHPYRHLNRLGTSLLDPGESAAIVGDQRAEPNITMSMGQLNELVRTAVQECVNSNCQASQAKSLK
notes: Movement protein (MP; BC1) of Abutilon mosaic virus, full-length; Two copies expressed from one T-DNA (pFRETtv-2-in-1), one with mVenus and one with mTurquoise2, in four layouts (NN, NC, CN, CC); each copy carries one fluorescent protein at one end; also called mVenus::MP^AAA; MP^AAA::mVenus; source: N. benthamiana leaf epidermis, transiently expressed after agro-infiltration, in living cells; …
Q: With B1 as the molecule, how does the “mean FRET efficiency (layout NC, with AbMV)” value [2] read?
A: 42%

Q: And the “mean FRET efficiency (layout NC, without AbMV)” value [2]?
A: 50%

B2: AbMV movement protein, full-length, wild type (MP^WT), fused to mVenus or mTurquoise2 (natural protein)
chain: B1 chain with A221T, A223S, A250S
notes: Movement protein (MP; BC1) of Abutilon mosaic virus, full-length; Two copies expressed from one T-DNA (pFRETtv-2-in-1), one with mVenus and one with mTurquoise2, in four layouts (NN, NC, CN, CC); each copy carries one fluorescent protein at one end; also called BC1; mVenus::MP^WT; source: N. benthamiana leaf epidermis, transiently expressed after agro-infiltration, in living cells; not shown: …
Q: What does the source list for B2?
A: mean FRET efficiency (layout NC, with AbMV) [2]: 28%; mean FRET efficiency (layout NC, without AbMV) [2]: 36%

B3: AbMV movement protein, full-length, T221D/S223D/S250D (MP^DDD), fused to mVenus or mTurquoise2 (natural protein, Abutilon mosaic virus, UniProt P21946 1-293, looked up)
chain: B1 chain with A221D, A223D, A250D
notes: Movement protein (MP; BC1) of Abutilon mosaic virus, full-length; Two copies expressed from one T-DNA (pFRETtv-2-in-1), one with mVenus and one with mTurquoise2, in four layouts (NN, NC, CN, CC); each copy carries one fluorescent protein at one end; also called mVenus::MP^DDD; MP^DDD::mVenus; source: N. benthamiana leaf epidermis, transiently expressed after agro-infiltration, in living cells; …
Q: How did the “mean FRET efficiency (layout NC, with AbMV)” value [2] turn out when B3 was run?
A: 30%

Q: What about the “mean FRET efficiency (layout NC, without AbMV)” value [2] of the same molecule?
A: 14%

Source: publication PMC7411133, “Phosphorylations of the Abutilon Mosaic Virus Movement Protein Affect Its Self-Interaction, Symptom Development, Viral DNA Accumulation, and Host Range” (Frontiers in Plant Science, 2020)
